Our source for the inhibition of ghrelin acylation in cells, compounds used and EC50 in the GHS-R1a assay (stably transfected HEK-293T-GHS-R1a cells) values is article PMC3763810.

One test deals with ghrelin O-acyltransferase (GOAT) with a C-terminal 3xFlag tag (mouse) (UniProt P0C7A3).
UniProt P0C7A3, sequence (P0C7A3 whole entry): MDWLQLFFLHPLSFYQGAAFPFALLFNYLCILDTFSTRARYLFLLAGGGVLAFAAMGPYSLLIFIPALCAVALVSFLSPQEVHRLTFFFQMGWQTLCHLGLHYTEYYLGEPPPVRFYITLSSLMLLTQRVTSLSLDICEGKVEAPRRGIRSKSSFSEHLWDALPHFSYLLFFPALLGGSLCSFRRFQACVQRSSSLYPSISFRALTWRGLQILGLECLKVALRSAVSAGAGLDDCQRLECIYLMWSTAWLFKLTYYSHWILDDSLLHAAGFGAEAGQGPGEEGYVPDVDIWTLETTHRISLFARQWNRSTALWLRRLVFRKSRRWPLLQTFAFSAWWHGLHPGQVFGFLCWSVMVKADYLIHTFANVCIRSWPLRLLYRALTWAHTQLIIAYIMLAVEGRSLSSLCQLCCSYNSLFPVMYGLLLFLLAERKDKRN
In turn, GO-CoA-Tat (peptide) returned an inhibition of ghrelin acylation in cells, compounds used at 6 μM of 75%.

For another test, the target named is growth hormone secretagogue receptor (GHS-R1a) (UniProt Q92847).
UniProt Q92847, sequence (Q92847 whole entry): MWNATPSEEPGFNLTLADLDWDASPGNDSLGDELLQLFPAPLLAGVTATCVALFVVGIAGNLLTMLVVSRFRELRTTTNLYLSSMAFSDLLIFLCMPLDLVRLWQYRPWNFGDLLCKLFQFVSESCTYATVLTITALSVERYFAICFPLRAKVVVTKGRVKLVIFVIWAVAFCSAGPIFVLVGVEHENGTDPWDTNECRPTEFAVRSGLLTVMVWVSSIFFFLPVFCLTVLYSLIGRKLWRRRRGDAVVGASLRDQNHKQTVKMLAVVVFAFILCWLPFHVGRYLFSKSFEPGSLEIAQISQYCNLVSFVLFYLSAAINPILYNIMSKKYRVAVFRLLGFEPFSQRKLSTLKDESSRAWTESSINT
Turning to GO-CoA-Tat (peptide), the EC50 in the GHS-R1a assay (stably transfected HEK-293T-GHS-R1a cells) is > 10000 nM.
With Des-acyl ghrelin (peptide), the EC50 in the GHS-R1a assay (stably transfected HEK-293T-GHS-R1a cells) is > 10000 nM.
On the same count and under the same terms, the result for GO-Tat (peptide) reads 23 nM.
Ghrelin28-Oct-CoA (peptide) showed an EC50 in the GHS-R1a assay (stably transfected HEK-293T-GHS-R1a cells) of 270 nM.
Acyl ghrelin (peptide) registered an EC50 in the GHS-R1a assay (stably transfected HEK-293T-GHS-R1a cells) of 18 nM.
Still for that read-out and setting: then “Amide ghrelin (Ser3 Dap-Octanoyl-Amide) (peptide)”, with 19 nM.
